Reference: publication PMC3017601 (Nucleic Acids Research, 2010)

Molecular target: the molecule itself
Assay: SEC

B1: SMG-9 (natural protein)
chain: MSESGHSQPGLYGIERRRRWKEPGSGGPQNLSGPGGRERDYIAPWERERRDASEETSTSVMQKTPIILSKPPAERSKQPPPPTAPAAPPAPAPLEKPIVLMKPREEGKGPVAVTGASTPEGTAPPPPAAPAPPKGEKEGQRPTQPVYQIQNRGMGTAAPAAMDPVVGQAKLLPPERMKHSIKLVDDQMNWCDSAIEYLLDQTDVLVVGVLGLQGTGKSMVMSLLSANTPEEDQRTYVFRAQSAEMKERGGNQTSGIDFFITQERIVFLDTQPILSPSILDHLINNDRKLPPEYNLPHTYVEMQSLQIAAFLFTVCHVVIVVQDWFTDLSLYRFLQTAEMVKPSTPSPSHESSSSSGSDEGTEYYPHLVFLQNKARREDFCPRKLRQMHLMIDQLMAHSHLRYKGTLSMLQCNVFPGLPPDFLDSEVNLFLVPFMDSEAESENPPRAGPGSSPLFSLLPGYRGHPSFQSLVSKLRSQVMSMARPQLSHTILTEKNWFHYAARIWDGVRKSSALAEYSRLLA
stoichiometry N: ~2
